# Source: patent US20250073202A1, “METHODS TO TREAT RENAL DISORDERS USING CALCIUM CHANNEL INHIBITORS” (The Trustees of Indiana University, priority 2018, published 2025)
# Assays:
# AKI-primed CD4+ cells [1] = experiment: In vitro stimulation of AKI-primed kidney CD4+ cells with Ang II and elevated Na+, IL17 response; type: cell-based, rat; conditions: inhibitor 10 μM; Ang II 10^-7 M and 170 mM Na+; 12-14 hours; cells 7 days post I/R
# Description: Total RNA was obtained from kidney using Trizol and the Zymogen RNA extraction kit and cDNA was prepared using MMLV enzyme (Invitrogen, Carlsburg, CA). Quantitative real time PCR (qPCR) using gene specific primers was performed using ABI 7500 (Applied Biosystems, Foster City, CA). mRNA values were calculated using 2^−ΔΔCt. Specific primers sequences for IL-6 (catalog #Rn01410330_m1), Kim-1 (#Rn00597703_m1) and IL17 (Rn01757168_m1) were purchased from ThermoFisher (Waltham, MA).
# (§1) To evaluate protein expression of IL17 or Orai1, Orai2 or Orai3, cells were restimulated with PMA and ionomycin for 6 hours in the presence of monensin (Golgistop, 1 μg·ml, BD Biosciences) permeabilized with saponin ([…]) and stained with relevant antibody. Cells were scanned using flow cytometry (FACSCalibur, BD Biosciences, San Jose, CA) and scans were analyzed using Flowjo software (Tree Star, Ashland, OR).
# CD4+T cells were isolated using the MACS Pan-T cell microbead separation kit (Miltenyl, Glabach, Germany). T cells were stimulated with plate bound anti-CD3 (precoated with 2 μg/mL) and soluble anti-CD28 (1 μg/mL). Cells (2.5×10^5 in 0.25 ml) were incubated 12-14 hours at 37° C. in RPMI medium supplemented with 10% FBS (Invitrogen) in a 48-well plate. Cells were challenged with Ang II (Sigma, 10^−7M) and raising the extracellular Na+ from 140 mM to 170 mM, using a 1 M NaCl solution. Calcium channel inhibitors 2ABP (10 μM, Sigma) AnCoA4 (10 μM, Millipore, Burlington, MA) and YM58483/BTP2 (10 μM) were included to evaluate effects on IL-17.
# AKI-primed CD4+ cells [2] = experiment: Fura-2 imaging of intracellular Ca2+ responses in AKI-primed CD4+ cells; type: cell-based, rat; conditions: superfusate with Ang II and elevated Na+; to levels similar to sham
# Description: To assess Ca^2+ responses, fura2 imaging was performed. Briefly, isolated CD4+ T cells were loaded with fura-2AM (2.5 μM, Sigma, St. Louis, MO) for 45 min, washed, placed on poly-lysine (Sigma) coated coverslips and placed in a superfusion chamber with physiological salt solution (PSS) containing 2 mM Ca^2+. The chamber was mounted on an inverted epifluorescence microscope and signal measured with alternating excitation at 340 and 380 nm and emission at 510 nm using the InCa^2+-imaging system (Intracellular Imaging Systems, Cincinnati, OH). Data were acquired at 1.5 Hz and representative tracings were smoothed to the 10 nearest neighbor points using GraphPad Prism. For analysis, an increase in signal intensity of >1 standard deviation from baseline was considered a positive response. Frequency of responding cells was determined from an average 53±19 cells for each animal.
# human blood CD4+ cells = experiment: In vitro stimulation of human blood CD4+ cells from AKI patients with elevated sodium, IL17 response; type: cell-based; conditions: 170 mM Na+, overnight (~12 hours)
# Description: For in vitro stimulation of human blood cells, primary T cells were isolated from fresh blood using Straight whole blood CD4 kit from Miltneyli Biotech (Miltenyli, San Diego, CA) according to manufactures' protocol. CD4+T cells were plated at a density of 1×10^6 cells/mL in RPMI medium supplemented with FBS. Cells were stimulated with human anti-CD3/CD28 dynabeads (Gibco; Catalogue no 11161D) along with labeled treatment overnight (˜12 hours). T cells were harvested and incubated with monensin for 6 hours, prior to staining for IL-17 (Table 4).
# [3] = tested on: renal ischemia reperfusion injury; experiment: Bilateral renal ischemia/reperfusion (I/R) injury in rats, 24 hours after reperfusion (Study II); type: in vivo, rat
# Description: All studies used male Sprague-Dawley rats (250-300 g) that were purchased from Envigo (Indianapolis, IN). Rats were anesthetized with a cocktail of ketamine (100 mg·kg^−1, KetoVed, Vedco Inc, St. Joseph, MO) and xylazine (50 mg·kg^−1, AnaSed, Lloyd Inc, Shenandoah IA). Rats were placed on a heated surgical table to maintain body temperature. A midline incision and either unilateral (left) or bilateral renal ischemia (as indicated in Results) was induced by applying micro-aneurism clamps on the renal pedicles for a period of 40 min. Re-establishment of perfusion was verified by visual examination following removal of the clamps. Rats were provided post-operative analgesia using buprenorphine-SR (1 mg·kg^−1).
# Rats were allowed to recover for various periods of time as described in the Results. In Study I, lymphocytes were studied in vitro after recovery for either 2 or 7 days following I/R or sham surgery for evaluation of function in vitro or for FACS analysis. In Study II, the effect of SOCE on kidney injury was studied with the inhibitor YM58483/BPT2 (N-[4-[3,5-Bis(trifluoromethyl)-1H-pyrazol-1-yl]phenyl]-4-methyl-1,2,3-thiadiazole-5-carboxamide; Tocris/Bio-Techne Minneapolis, MN). Rats were pretreated p.o. 2-3 hours prior to surgery with YM58483.BPT2 (1 mg·kg^−1) in sugar-free chocolate pudding following dilution in 100% EtOH, at, a dose previously shown to affect T cell activation in rats. In some experiments, rats were also treated with the IL17Rc (150 ng/day i.p; R&D Systems). In addition, one experiment utilized a model of rhabdomyolysis, induced by injection of 50% glycerol (10 ml/kg) into the hindlimb muscle of rats following 16 hours of water restriction.
# To measure creatinine, tail blood was collected in heparin containing tubes and centrifuged to collect plasma. Plasma creatinine was measured using a Pointe Scientific Analyzer and Creatinine Assay reagents using methods outlined by the manufacturer (Pointe Scientific, Canton MI). Urine was collected for 24 hours by placing rats in metabolic cages and urine volume was determined gravimetrically. Urine creatinine was measured using a colorimetric assay adopted for microplate readers. Creatinine clearance was measured using UCr*V/PCr. […]
# Freshly harvested kidneys were minced and digested in liberase (2 μg/ml. Roche, Indianapolis IN) for 15 min at 37° C. using Gentle MACs (Miltenyli, San Diego, CA). The digested tissue was filtered through a 100-μm mesh and washed with RPMI containing 10% fetal bovine serum (Invitrogen). Mononuclear cells were isolated using Percol (Sigma) density gradient centrifugation.
# as §1
# The effect of SOCE on early ischemic kidney injury was studied with the inhibitor YM58483/BPT2 (N-[4-[3,5-Bis(trifluoromethyl)-1 H-pyrazol-1-yl]phenyl]-4-methyl-1,2,3-thiadiazole-5-carboxamide; Tocris/Bio-Techne Minneapolis, MN). Rats were pretreated 2-3 hours prior to surgery, p.o. in sugar-free chocolate pudding following dilution in 100% EtOH, at 1 mg·kg^−1, a dose previously shown affect T cell activation in rats. To evaluate if SOCE influences Th17 cells in AKI, rats were fed YM58483/BPT2 approximately 2 hours prior to […] and reperfusion. […] YM58483/2BPT2 also attenuated the infiltration of total CD4+ and CD8+ T-cells, B-cells, and dendritic cells following I/R (FIGS. 3C, 3D, 3E, and 3F).
# [4] = 24 hours following ischemia reperfusion, mean ± S.E.
Molecule,"increase in IL17+ cells (IL17 protein, FACS) (AKI-primed CD4+ cells [1])",increase of IL17 mRNA (AKI-primed CD4+ cells [1]),percentage of Ca2+-responding cells (AKI-primed CD4+ cells [2]),IL17 response to elevated extracellular sodium (human blood CD4+ cells),infiltration of total CD4+ T-cells in kidney (vs vehicle) ([3]; 24 hours following I/R),kidney CD4+/IL17+ cells (vs vehicle) ([3]; 24 hours following I/R),"CD4+ renal lymphocyte content [3, 4] [cells/gram]","CD4+/IL-17+ cells [3, 4] [cells/gram]","CD8+ cells renal lymphocyte content [3, 4] [cells/gram]","CD8+IL-17+ cells [3, 4] [cells/gram]","Serum Creatinine [3, 4] [mg/dL]","Total IL-17+ cells [3, 4] [cells/gram]"
COc1cc2c(cc1-c1coc3c4c(ccc3c1=O)OC(C)(C)C=C4)OCO2 [AnCoA4],completely blocked,completely blocked,significantly attenuated,inhibited,,,,,,,,
"NCCOB(c1ccccc1)c1ccccc1 [2-ABP, 2-aminoethoxydiphenyl borate]",completely blocked,completely blocked,,,,,,,,,,
"IL-17Rc: the IL17Rc receptor antagonist (R&D Systems), 150 ng/day i.p. (protein, UniProt Q8NAC3 21-538, looked up, extracellular domain) extracellular domain: LERLVGPQDATHCSPVSLEPWGDEERLRVQFLAQQSLSLAPVTAATARTALSGLSGADGRREERGRGKSWVCLSLGGSGNTEPQKKGLSCRLWDSDILCLPGDIVPAPGPVLAPTHLQTELVLRCQKETDCDLCLRVAVHLAVHGHWEEPEDEEKFGGAADSGVEEPRNASLQAQVVLSFQAYPTARCVLLEVQVPAALVQFGQSVGSVVYDCFEAALGSEVRIWSYTQPRYEKELNHTQQLPDCRGLEVWNSIPSCWALPWLNVSADGDNVHLVLNVSEEQHFGLSLYWNQVQGPPKPRWHKNLTGPQIITLNHTDLVPCLCIQVWPLEPDSVRTNICPFREDPRAHQNLWQAARLQLLTLQSWLLDAPCSLPAEAALCWRAPGGDPCQPLVPPLSWENVTVDKVLEFPLLKGHPNLCVQVNSSEKLQLQECLWADSLGPLKDDVLLLETRGPQDNRSLCALEPSGCTSLPSKASTRAARLGEYLLQDLQSGQCLQLWDDDLGALWACPMDKYIHKR",,,,,significantly reduced,significantly reduced,19229 ± 3175,1567 ± 294,4356 ± 559,251 ± 118,3.96 ± 1.2,8447 ± 1753
